The nature of data set [1]: Effect of pH on insulin solubility in DMSO (visual, A630). In kind it is physicochemical. The note with it: pH memory of 7, some lower-concentration solutions e.g. 10 mg/mL. Here is the method: These solutions were lyophilized to dryness ([…]) using a conservative cycle and reconstituted to various nominal concentrations in DMSO. Solubility was measured by visual inspection for clarity and turbidity via A630.

The nature of data set [2]: Freezing point depression of DMSO solutions by DSC. In kind it is physicochemical. The note with it: DSC scan. Here is the method:
Using PerkinElmer Instruments PYRIS Diamond Differential Scanning calorimetry (“DSC”), samples were cooled to −40° C. and heated to 40° C. at 8° C. per minute for screening purposes.

The record followed here is patent US9018162B2, “Methods for rapidly treating severe hypoglycemia” (Xeris Pharmaceuticals, Inc., priority 2013, dated 2015).

For insulin, in data set [1], the “period to slowly dissolve to a clear solution” value is given as “about 24 hours”.
Regarding `C[S+](C)[O-]` [neat DMSO, dimethylsulfoxide], the “temperature of crystallization (Tc)” value in data set [2] was about 18 °C.
